Data set [1] deals with the molecule itself. The data set is described as follows: crystal structure; HiNagB crystals, P21, 12 monomers in the asymmetric unit, 3.0 Å; 2% Tacsimate pH 5.0, 0.1 M sodium citrate pH 5.6, 16% PEG 3350, 0.1 M strontium chloride, 18°C.
Data set [2] deals with the molecule itself. Nature of the data set: crystal structure; PmNagB crystals, P21, 4 monomers in the asymmetric unit, 2.3 Å; 100 mM sodium cacodylate/HCl pH 6.5, 200 mM MgCl2, 20% PEG 1000, 18°C; analysis of crystal packing.

B1: Glucosamine-6-phosphate deaminase (NagB) from Haemophilus influenzae (enzyme)
chain: not shown
notes: Glucosamine-6-phosphate deaminase (NagB), Haemophilus influenzae; Made from a Gateway recombinant plasmid; also called HiNagB; Hi-NagB; source: E. coli BL21(DE3)*, purified (Ni-NTA, SEC)
As to B1, the “stoichiometry N” value in data set [1] amounted to 6.

B2: Glucosamine-6-phosphate deaminase (NagB) from Pasteurella multocida (enzyme)
chain: not shown
notes: Glucosamine-6-phosphate deaminase (NagB), Pasteurella multocida; Made from a Gateway recombinant plasmid; also called PmNagB; Pm-NagB; source: E. coli BL21(DE3)*, purified (Ni-NTA, SEC)
On to B2, for which, in data set [2], the “stoichiometry N” value worked out at 2.

The values are drawn from paper PMC9812318, “A dimer between monomers and hexamers—Oligomeric variations in glucosamine-6-phosphate deaminase family” (PLOS ONE, 2023).
